Reference: publication doi:10.1101/2025.10.06.680828 (bioRxiv, 2025)

B1: human Drp1 isoform 5 (natural protein)
chain: MEALIPVINKLQDVFNTVGADIIQLPQIVVVGTQSSGKSSVLESLVGRDLLPRGTGIVTRRPLILQLVHVSQEDKRKTTGEENDPATWKNSRHLSKGVEAEEWGKFLHTKNKLYTDFDEIRQEIENETERISGNNKGVSPEPIHLKIFSPNVVNLTLVDLPGMTKVPVGDQPKDIELQIRELILRFISNPNSIILAVTAANTDMATSEALKISREVDPDGRRTLAVITKLDLMDAGTDAMDVLMGRVIPVKLGIIGVVNRSQLDINNKKSVTDSIRDEYAFLQKKYPSLANRNGTKYLARTLNRLLMHHIRDCLPELKTRINVLAAQYQSLLNSYGEPVDDKSATLLQLITKFATEYCNTIEGTAKYIETSELCGGARICYIFHETFGRTLESVDPLGGLNTIDILTAIRNATGPRPALFVPEVSFELLVKRQIKRLEEPSLRCVELVHEEMQRIIQHCSNYSTQELLRFPKLHDAIVEVVTCLLRKRLPVTNEMVHNLVAIELAYINTKHPDFADACGLMNNNIEEQRRNRLARELPSAVSRDKSSKVPSALAPASQEPSPAASAEADGKLIQDSRRETKNVASGGGGVGDGVQEPTTGNWRGMLKTSKAEELLAEEKSKPIPIMPASPQKGHAVNLLDVPVPVARKLSAREQRDCEVIERLIKSYFLIVRKNIQDSVPKAVMHFLVNHVKDTLQSELVGQLYKSSLLDDLLTESEDMAQRRKEAADMLKALQGASQIIAEIRETHLW
B2: human Drp1 isoform 8 (natural protein)
chain: MEALIPVINKLQDVFNTVGADIIQLPQIVVVGTQSSGKSSVLESLVGRDLLPRGTGIVTRRPLILQLVHVSQEDKRKTTGEENDPATWKNSRHLSKGVEAEEWGKFLHTKNKLYTDFDEIRQEIENETERISGNNKGVSPEPIHLKIFSPNVVNLTLVDLPGMTKVPVGDQPKDIELQIRELILRFISNPNSIILAVTAANTDMATSEALKISREVDPDGRRTLAVITKLDLMDAGTDAMDVLMGRVIPVKLGIIGVVNRSQLDINNKKSVTDSIRDEYAFLQKKYPSLANRNGTKYLARTLNRLLMHHIRDCLPELKTRINVLAAQYQSLLNSYGEPVDDKSATLLQLITKFATEYCNTIEGTAKYIETSELCGGARICYIFHETFGRTLESVDPLGGLNTIDILTAIRNATGPRPALFVPEVSFELLVKRQIKRLEEPSLRCVELVHEEMQRIIQHCSNYSTQELLRFPKLHDAIVEVVTCLLRKRLPVTNEMVHNLVAIELAYINTKHPDFADACGLMNNNIEEQRRNRLARELPSAVSRDKVASGGGGVGDGVQEPTTGNWRGMLKTSKAEELLAEEKSKPIPIMPASPQKGHAVNLLDVPVPVARKLSAREQRDCEVIERLIKSYFLIVRKNIQDSVPKAVMHFLVNHVKDTLQSELVGQLYKSSLLDDLLTESEDMAQRRKEAADMLKALQGASQIIAEIRETHLW
B3: human Drp1 isoform 3 (natural protein)
chain: MEALIPVINKLQDVFNTVGADIIQLPQIVVVGTQSSGKSSVLESLVGRDLLPRGTGIVTRRPLILQLVHVSQEDKRKTTGEENGVEAEEWGKFLHTKNKLYTDFDEIRQEIENETERISGNNKGVSPEPIHLKIFSPNVVNLTLVDLPGMTKVPVGDQPKDIELQIRELILRFISNPNSIILAVTAANTDMATSEALKISREVDPDGRRTLAVITKLDLMDAGTDAMDVLMGRVIPVKLGIIGVVNRSQLDINNKKSVTDSIRDEYAFLQKKYPSLANRNGTKYLARTLNRLLMHHIRDCLPELKTRINVLAAQYQSLLNSYGEPVDDKSATLLQLITKFATEYCNTIEGTAKYIETSELCGGARICYIFHETFGRTLESVDPLGGLNTIDILTAIRNATGPRPALFVPEVSFELLVKRQIKRLEEPSLRCVELVHEEMQRIIQHCSNYSTQELLRFPKLHDAIVEVVTCLLRKRLPVTNEMVHNLVAIELAYINTKHPDFADACGLMNNNIEEQRRNRLARELPSAVSRDKVASGGGGVGDGVQEPTTGNWRGMLKTSKAEELLAEEKSKPIPIMPASPQKGHAVNLLDVPVPVARKLSAREQRDCEVIERLIKSYFLIVRKNIQDSVPKAVMHFLVNHVKDTLQSELVGQLYKSSLLDDLLTESEDMAQRRKEAADMLKALQGASQIIAEIRETHLW
B4: human Drp1 isoform 4 (natural protein)
chain: MEALIPVINKLQDVFNTVGADIIQLPQIVVVGTQSSGKSSVLESLVGRDLLPRGTGIVTRRPLILQLVHVSQEDKRKTTGEENGVEAEEWGKFLHTKNKLYTDFDEIRQEIENETERISGNNKGVSPEPIHLKIFSPNVVNLTLVDLPGMTKVPVGDQPKDIELQIRELILRFISNPNSIILAVTAANTDMATSEALKISREVDPDGRRTLAVITKLDLMDAGTDAMDVLMGRVIPVKLGIIGVVNRSQLDINNKKSVTDSIRDEYAFLQKKYPSLANRNGTKYLARTLNRLLMHHIRDCLPELKTRINVLAAQYQSLLNSYGEPVDDKSATLLQLITKFATEYCNTIEGTAKYIETSELCGGARICYIFHETFGRTLESVDPLGGLNTIDILTAIRNATGPRPALFVPEVSFELLVKRQIKRLEEPSLRCVELVHEEMQRIIQHCSNYSTQELLRFPKLHDAIVEVVTCLLRKRLPVTNEMVHNLVAIELAYINTKHPDFADACGLMNNNIEEQRRNRLARELPSAVSRDKSSKVPSALAPASQEPSPAASAEADGKVASGGGGVGDGVQEPTTGNWRGMLKTSKAEELLAEEKSKPIPIMPASPQKGHAVNLLDVPVPVARKLSAREQRDCEVIERLIKSYFLIVRKNIQDSVPKAVMHFLVNHVKDTLQSELVGQLYKSSLLDDLLTESEDMAQRRKEAADMLKALQGASQIIAEIRETHLW
B5: human Drp1 isoform 6 (natural protein)
chain: MEALIPVINKLQDVFNTVGADIIQLPQIVVVGTQSSGKSSVLESLVGRDLLPRGTGIVTRRPLILQLVHVSQEDKRKTTGEENDPATWKNSRHLSKGVEAEEWGKFLHTKNKLYTDFDEIRQEIENETERISGNNKGVSPEPIHLKIFSPNVVNLTLVDLPGMTKVPVGDQPKDIELQIRELILRFISNPNSIILAVTAANTDMATSEALKISREVDPDGRRTLAVITKLDLMDAGTDAMDVLMGRVIPVKLGIIGVVNRSQLDINNKKSVTDSIRDEYAFLQKKYPSLANRNGTKYLARTLNRLLMHHIRDCLPELKTRINVLAAQYQSLLNSYGEPVDDKSATLLQLITKFATEYCNTIEGTAKYIETSELCGGARICYIFHETFGRTLESVDPLGGLNTIDILTAIRNATGPRPALFVPEVSFELLVKRQIKRLEEPSLRCVELVHEEMQRIIQHCSNYSTQELLRFPKLHDAIVEVVTCLLRKRLPVTNEMVHNLVAIELAYINTKHPDFADACGLMNNNIEEQRRNRLARELPSAVSRDKSSKVPSALAPASQEPSPAASAEADGKVASGGGGVGDGVQEPTTGNWRGMLKTSKAEELLAEEKSKPIPIMPASPQKGHAVNLLDVPVPVARKLSAREQRDCEVIERLIKSYFLIVRKNIQDSVPKAVMHFLVNHVKDTLQSELVGQLYKSSLLDDLLTESEDMAQRRKEAADMLKALQGASQIIAEIRETHLW
B6: human Drp1 isoform 2 (natural protein)
chain: MEALIPVINKLQDVFNTVGADIIQLPQIVVVGTQSSGKSSVLESLVGRDLLPRGTGIVTRRPLILQLVHVSQEDKRKTTGEENGVEAEEWGKFLHTKNKLYTDFDEIRQEIENETERISGNNKGVSPEPIHLKIFSPNVVNLTLVDLPGMTKVPVGDQPKDIELQIRELILRFISNPNSIILAVTAANTDMATSEALKISREVDPDGRRTLAVITKLDLMDAGTDAMDVLMGRVIPVKLGIIGVVNRSQLDINNKKSVTDSIRDEYAFLQKKYPSLANRNGTKYLARTLNRLLMHHIRDCLPELKTRINVLAAQYQSLLNSYGEPVDDKSATLLQLITKFATEYCNTIEGTAKYIETSELCGGARICYIFHETFGRTLESVDPLGGLNTIDILTAIRNATGPRPALFVPEVSFELLVKRQIKRLEEPSLRCVELVHEEMQRIIQHCSNYSTQELLRFPKLHDAIVEVVTCLLRKRLPVTNEMVHNLVAIELAYINTKHPDFADACGLMNNNIEEQRRNRLARELPSAVSRDKLIQDSRRETKNVASGGGGVGDGVQEPTTGNWRGMLKTSKAEELLAEEKSKPIPIMPASPQKGHAVNLLDVPVPVARKLSAREQRDCEVIERLIKSYFLIVRKNIQDSVPKAVMHFLVNHVKDTLQSELVGQLYKSSLLDDLLTESEDMAQRRKEAADMLKALQGASQIIAEIRETHLW

Target: the molecule itself
Assay: mass photometry

Protein	stoichiometry N
B1	2
B2	2
B3	2
B4	2
B5	2
B6	2
